Results on 26 molecules are retold here after patent US20220298237A1 (KEIO UNIVERSITY, published 2022).

For assay [1], the target named is T1, oligopeptide ATYPSGHLDM (SEQ ID NO: 1) (human and mouse).
T1 construct: Synthetic peptide; positions 148 to 157 of the human AQP3 polypeptide, identical in mouse; also called peptide used for immunization; oligopeptide 5
T1 peptide: ATYPSGHLDM
Nature of the assay: ELISA on peptide, Fab. Background: ELISA stands for enzyme-linked immunosorbent assay.

Assay [2] deals with T1, oligopeptide ATYPSGHLDM (SEQ ID NO: 1). Nature of the assay: ELISA on the immunogen peptide (FIG. 2).
Assay [3] deals with T2, mouse AQP3 in lysate of HEK293T cells overexpressing mouse AQP3 and a myc-biotinylated tag (mouse, UniProt Q8R2N1 1-292).
T2 construct: Cell lysate used in ELISA; also called AQP3 containing cell lysate; not shown: myc-biotinylated tag
T2 sequence (looked up): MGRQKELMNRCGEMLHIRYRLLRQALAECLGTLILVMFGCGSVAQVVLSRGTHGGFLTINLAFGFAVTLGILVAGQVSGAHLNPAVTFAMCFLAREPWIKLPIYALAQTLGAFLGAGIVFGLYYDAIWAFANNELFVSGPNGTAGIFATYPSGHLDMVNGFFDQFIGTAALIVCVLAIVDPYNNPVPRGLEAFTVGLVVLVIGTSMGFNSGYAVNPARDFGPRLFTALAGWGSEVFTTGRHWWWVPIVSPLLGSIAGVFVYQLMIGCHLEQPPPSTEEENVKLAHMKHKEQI
As to the kind of experiment: ELISA on lysate of HEK293T cells overexpressing mouse AQP3 (FIG. 3). An excerpt: Cell lysate from HEK293T cells overexpressing mouse AQP3 and a myc-biotinylated tag was used in an ELISA assay to measure the binding of antibodies A, B, C, D, E, F, G, H, J, and K to AQP3. Cell lysate from HEK293T cells overexpressing the myc-biotinylated tag but not AQP3 was used as control. […] C. Antibody binding to AQP3 expressing cells

In assay [4] the target is T3, human aquaporin 3 (AQP3) on cells (human, UniProt Q92482 1-292).
T3 construct: whole, on cells; Water channel membrane protein; also called human AQP3; AQP3 on HaCaT cells
T3 sequence (looked up): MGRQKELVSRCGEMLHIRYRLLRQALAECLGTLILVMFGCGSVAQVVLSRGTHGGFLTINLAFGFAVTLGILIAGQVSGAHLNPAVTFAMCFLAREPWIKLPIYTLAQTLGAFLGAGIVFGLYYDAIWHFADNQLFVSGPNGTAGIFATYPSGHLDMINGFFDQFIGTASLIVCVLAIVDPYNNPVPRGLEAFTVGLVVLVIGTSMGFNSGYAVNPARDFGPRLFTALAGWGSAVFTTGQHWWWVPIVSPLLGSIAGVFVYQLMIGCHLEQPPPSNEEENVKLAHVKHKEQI
Nature of the assay: fluorescence binding assay on HaCaT cells, 10 µg/mL (FIG. 5C).

In assay [5] the target is T4, mouse aquaporin 3 (AQP3) on cells (mouse, UniProt Q8R2N1 1-292).
T4 construct: whole, on cells; Water channel membrane protein; also called mouse AQP3; AQP3 on PAM212 cells
T4 sequence (looked up): T2 sequence (looked up)
Nature of the assay: fluorescence binding assay on PAM212 cells, 10 µg/mL (FIG. 5B). How it is done:
PAM212 and macrophage cells were reacted with each anti AQP3 antibody (0.1, 1, or 10 μg/mL) at 4° C. for 1 hour. After washing the cells, a fluorescent-labeled secondary antibody was added and the reaction was allowed to occur additionally for 1 hour (4° C.). By measuring the fluorescence intensity, the binding property of each anti AQP3 antibody to cells was obtained.
The assay was also performed using PAM212 cells and antibodies A, B, C, D, E, F, G, H, and J at a concentration of 10 μg/mL. Binding of antibodies C, D, E, G, and J to PAM212 cells was statistically significant.

Numbering of substitutions follows the chain as printed.

B1: BC-A8 (Fab) (Fab, V domains shown)
VH: QTVKESGGRLVTPGAPLTLTCTVSRFSLSSYAMTWVRQAPGKGLEWIGIINNDGSSSTWYASWVKGRFTISKTSTTMDLKMTSLTTEDTATYFCARGGTSGYDIWGPGTLVTVSL
VL: AQGLTQTPSPVSAAVGGTVTINCQSSPSVYKNYLSWYQQKPGQPPKLLIYGASTLASGVPSRFKGSGSGTQFTLTISDVQCDDAATYYCAGGYRGSSDIFAFGGGTEVVVK
B1: the binding result in assay [1] was “binds”.

B2: BC-E2 (Fab) (Fab, V domains shown)
VH: QEQLKESGGRLVTPGAPLTLTCTVSRFSLSSYAMTWVRQAPGKGLEWIGIINNDGISSTWYASWVKGRFTISKTSTTMDLKMTSLTTEDTATYFCARGGTSGYDIWGPGTLVTVSL
VL: B1 VL with Q2V, G3V, G51K
B2: in assay [1], the binding result is “binds”.

B3: SC-D1 (Fab) (Fab, V domains shown)
VH: B1 VH with T2S, V3L, K4E, G7R, A15G, P16S, R25G, S55V
VL: B1 VL with A1D, Q2P, G3M, L4M, D78G
For the molecule B3, the binding result in assay [1] is “binds”.

B4: SC-F6 (Fab) (Fab, V domains shown)
VH: B1 VH with T2S, S55I
VL: B1 VL with L4M, S9A, P10S, P41S
Take B4: the binding result in assay [1] is reported as “binds”.

B5: SC-G8 (Fab) (Fab, V domains shown)
VH: B1 VH with T2S, K4E, T12M, A15G, P16S, V23A, R25G, S56G
VL: B1 VL with Q2A, G3V, G51K, S96Y
Turning to B5, in assay [1], the binding result is “binds”.

B6: BC-E11 (Fab) (Fab, V domains shown)
VH: B1 VH with T2S, T12A, A15T, T22A, R25G, S55R, L84P
VL: B1 VL with L4M, Q71R
Turning to B6, the binding result in assay [1] is on record as “binds”.

B7: BC-B4 (Fab) (Fab, V domains shown)
VH: B1 VH with T2S, K4E, A15G, P16S, S55I, L110V
VL: B1 VL with Q2L, G3V, P27Q, S97G
As to B7, in assay [1], the binding result is recorded as “binds”.

B8: BC-E3 (Fab) (Fab, V domains shown)
VH: B1 VH with T2S, T12A, A15T, T22A, R25G, S55R, L84P
VL: B1 VL with L4M, Q71R
With B8, the binding result in assay [1] is reported as “binds”.

B9: BC-C8 (Fab) (Fab, V domains shown)
VH: B1 VH with T2S, V3L, K4E, A15G, P16S, S55I, L110V
VL: B1 VL with Q2L, G3V
Turning to B9, in assay [1], the binding result is on record as “binds”.

B10: BC-F7 (Fab) (Fab, V domains shown)
VH: B1 VH with T2S, K4E, A15G, P16S, S55I, L110V
VL: B1 VL with Q2L, G3V, P27Q, S97G
On to B10, for which, in assay [1], the binding result is on record as “binds”.

B11: SC-B2 (Fab) (Fab, V domains shown)
VH: B2 VH with K5M, G8R, A16G, P17S, S31N
VL: B1 VL with L4P, S97G
In the case of B11, the binding result in assay [1] is on record as “binds”.

B12: SC-C7 (Fab) (Fab, V domains shown)
VH: B1 VH with S30G, G54I, S56G, L115S
VL: B1 VL with A1D, Q2V, G3V, L4M
With B12, the binding result in assay [1] is given as “binds”.

B13: SC-H10 (Fab) (Fab, V domains shown)
VH: B1 VH with T2S, V3L, K4E, S55I
VL: B1 VL with K64S
Consider B13, for which, in assay [1], the binding result is given as “binds”.

B14: BC-A3 (Fab) (Fab, V domains shown)
VH: B1 VH with S55V
VL: B1 VL with G3V, S9A, P10S, G16R, P41S
Turning to B14, the binding result in assay [1] was “binds”.

B15: BC-H4 (Fab) (Fab, V domains shown)
VH: B1 VH with T2Q, V3L, S55V, L115S
VL: B1 VL with Q2L, G3V, S97G
As to B15, in assay [1], the binding result is listed as “binds”.

B16: BC-G6 (Fab) (Fab, V domains shown)
VH: B1 VH with T2S, K4E, A15G, P16S, V23A, R25G, S30G, S55I
VL: B1 VL with Q2L, G3V, L4M
Take B16: the binding result in assay [1] was “binds”.

B17: BC-E4 (Fab) (Fab, V domains shown)
VH: B1 VH with T2S, T12A, A15T, T22A, R25G, S55R, L84P
VL: B1 VL with L4M, Q71R
Regarding B17, the binding result in assay [1] is listed as “binds”.

B18: BC-A9 (Fab) (Fab, V domains shown)
VH: B1 VH with T2S, K4E, A15G, P16S, S55I, L110V
VL: B1 VL with S9A, P10S, P41S, V59A
On to B18, for which, in assay [1], the binding result was “binds”.

B19: BC-F2 (Fab) (Fab, V domains shown)
VH: B1 VH with T2S, T12A, A15T, T22A, R25G, S55R, L84P
VL: B1 VL with L4M, Q71R
For B19, in assay [1], the binding result is listed as “binds”.

B20: BC-E1 (Fab) (Fab, V domains shown)
VH: B1 VH with T2S, T12A, A15T, T22A, R25G, S55R, L84P
VL: B1 VL with L4M, Q71R
With B20, the binding result in assay [1] is listed as “binds”.

B21: SC-D10 (Fab) (Fab, V domains shown)
VH: B1 VH with T2S, A15G, P16S, S55V
VL: B1 VL with Q2L, G3V, L4M, I21T, G51K, K64S
For B21, the binding result in assay [1] is recorded as “binds”.

B22: Antibody B (antibody, mouse IgG2a, kappa, V domains shown)
VH: EVQLVESGGDLVKPGGSLKLSCAASGFTFSSYGMSWVRQTPDKRLEWVATISRGSIYTYYPDSVKGRFTISRDNAKNTLYLQMSSLKSEDTAMYYCARLSLYDYDGARYTMDYWGQGTSVTVSS
VL: DIVMTQSPKFMSTSVGDRVSITCKASQDVGTAVAWYQQKPGQSPKLLIYWASTRHTGVPDRFTGSGSGTDFTLTISNVQSEDLADYFCQQYSSYHTFGAGTKLELKR
notes: also called anti AQP3 antibody B
As for B22, the binding result in assay [2] and in assay [3] was “binds” throughout.

B23: Antibody F (antibody, mouse IgG2a, kappa, V domains shown)
VH: QVQLKESGPELVKPGASVKISCKASGYTFTDYYINWVKQRPGQGLEWIGWIFPGSGSTYYNEKFKGKATLTVDKSSSTAYMLLSSLTSEDSAVYFCADYGSSYRYFDVWGAGTTVTVSS
VL: DIVMTQSPAILSASPGEKVTMTCRASSSVSYMHWYQQKPGSSPKPWIYATSYLASGVPARFSGSGSGTSYSLTIGRVEAEDAATYYCQQWSSNPLTFGAGTKLELKR
notes: also called anti AQP3 antibody F; Antiboy F
Regarding B23, in assay [3], the binding result is given as “binds”.

B24: Antibody K (antibody, mouse IgG2a, kappa, V domains shown)
VH: QVQLKQSGAELVRPGTSVKVSCKASGYAFTNYLIEWVKQRPGQGLEWIGVINPGSGGTNYNEKFKGKATLTADKSSSTAYMQLSSLTSEDSAVYFCARWGFYYAMDYWGQGTSVTVSS
VL: DIVMTQSPSSLSASLGERVSLTCRASQEISGYLSWLQQKPDGTIKRLIYAASTLDSGVPKRFSGSRSGSDYSLTISSLESEDFADYYCLQYASYPLTFGAGTKLEIKR
notes: also called anti AQP3 antibody K
B24: the binding result in assay [2] and in assay [3] was “binds” each time.

B25: Antibody D (antibody, mouse IgG2a, kappa, V domains shown)
VH: EVQLQQSGAELVRPGASVTLSCKASGYTFTDYEMHWVQQTPVHGLEWIGGIDPETGGTGYNQKFKGKAILTADKSSSTAYMELRSLTSEDSAVYFCTRHGSYAMDYWGQGTSVTVSS
VL: DIVMTQSPKFMSTSVGDRVSITCKASQDVSTAVAWYQQKPGQSPKLLIYWASTRHTGVPDRFTGSGSGTDYTLTISSVQAEDLALYYCQQHYSTPPTFGGGTRLEIKR
notes: also called anti AQP3 antibody D
B25: the binding result in assay [4], in assay [5] and in assay [3] was “binds” in each case.

B26: Antibody A (antibody, mouse IgG2a, kappa, V domains shown)
VH: QVQLQQPGAELVRPGASVTLSCKASGYTFTDYEMHWVKQTPVHGLEWIGGVDPETGGTGYNQKFRGKAILTADKSSSTAYMELRSLTSEDSAVYYCARHGGSFYAMDYWGQGTSVTVSS
VL: B25 VL with R103K, I106L
notes: also called anti AQP3 antibody A
Regarding B26, the binding result in assay [3] is on record as “binds”.
